From publication PMC2951370, “Concerted Action of Two Formins in Gliding Motility and Host Cell Invasion by Toxoplasma gondii” (PLoS Pathogens, 2010)

Legend:
[1] = target: DD-myc-F1-IR/AA (Toxoplasma gondii); assay: co-IP; two sequential anti-myc immunoprecipitations (48 hrs Shld-1); IPs and flow throughs blotted, bands quantified with ImageJ and normalised to the input
[2] = target: DD-myc-F2-R/A (Toxoplasma gondii); assay: as above
[3] = target: the molecule itself; assay: SEC; purified FH2 domains on Superose 6 10/300 GL, 0.4 ml/min, PBS-NaCl 0.15 M buffer, to determine their oligomeric state

## Toxoplasma gondii Formin 1 (TgFRM1), endogenous (natural protein)
[1]
  percent of the input formin left in the second flow through after two anti-myc IPs (not co-precipitated): 30%

## Toxoplasma gondii Formin 2 (TgFRM2), endogenous (natural protein)
[2]
  percent of the input formin left in the second flow through after two anti-myc IPs (not co-precipitated): 17%

B1: His-F1L (FH2 domain of TgFRM1 with an N-terminal 48 amino acid proline-rich extension) (domain or fragment)
chain: KKPEAPKKEEAKPKPEAKKEAPKKGPPGGKGGKGPPGKGPPKGKGKGPKKKGEGGLKVGKKDEGKTKRFFWDPIFEDEIPGTIFMKKPNMVLKLQDVEETFAKVVAKKKTESKKPKIIQLLPDSKRAYNMSIALSKFNNYSYQQLREAIIDLDPKILTIEATETLLNFVPTGEENQVVKEYINSGGDLKLVDKPEQFVAAMLGVPLMKQRLEAHAFALNFREAYSDAYTPLENMADACDAIDDSQNLKIVLFAILELGNALNEGDPQRGGAAGFKPTTLAKLQEIRTTTKPVRTMLQYICDIIWEQQPTALNIYEDLKICDKAQRVDMQGIEGRISNLKAGLTKVKNTLEAAKKGNESTGVMGDRDPLRNIMDEFLIEAEPKIKQLDDFLVQVQNQFLQTCHYSGYPDKDVKKIKPDELFKQVAGFARQVDAIRKQKQEIADRELKRKEAEAKRAGKGLKSTAVKKVGMK
notes: source: E. coli, purified (Ni-NTA under native conditions)
[3]
  stoichiometry N: 2

B2: His-F2 (FH2 domain of TgFRM2) (domain or fragment, Toxoplasma gondii, UniProt D0V3Y1 3317-4043, looked up)
chain: TGSYPGASDKSQQTFSAGAPSSGTNARTESTPAGAGETGASGEAKAPAAPKKKAMPPPPPPGKTPGDASKAPGGPPGKGKAPPLPKGKKAPQLGKAPKAGGPPKKADAVDPMTLPLRRKIHWKTLGKEQIEGTVFKELEGDPAIPDMFDPEAISRLFSATLTVKSDEAAVKAAPKKAEEKKHTILDNKRAQNVAIVLARLPLSLDAIAQKMLHLDTEGLTVDILQKVEQVAPTPEELVKFREYEELKKTENTGDLRDVEKKMTALIPVTRLSSRVRVMQTALQWEKVVEEIEKQLALLCKAADEAHNSRKFRSLLQAVLQWGNYVNHGVKKAPKGQEVSSESEARKAETTSPTEGDRRENRQTLQQLPPILLVKELPTKGFKLASLEKLMEFRTTVDKSICSLHFIISNLIVSLPELDILDLASDMPSLEAAARLSDESIDAPVSYLRNEAAFLLSQIHAIKQVLAAKDATATDPSGAPRPSGSKPQTDEALHAELTRLQKLHGEMVLTLERLRESYLNCKAVIGEVGRFYGEDGPKKPSAGKHKLKGQAVSVDAGGSATAGGVIAEWEFGLLDQSPFELLFSILSTCRQGLRDVQANPRKYAILLVGRFASEEEKWKLLKFHIDNSLANRKRVTGCRGSDAEQVAGRPQDADKAGSSVVSSPRTTPRGSIASRGGKKLIVGRHGPEAGGTPQIPRGPPKSDNGSFTETQRLGRGLSEGSEDALSSP
notes: also called F2-WT; His-GST-F2; source: E. coli, purified (Ni-NTA under native conditions)
[3]
  stoichiometry N: 2
